Among the data in patent publication US20200109446A1 are percent of Cascade complexes converted to the faster-migrating species (Cascade lacking Cse1) and Cas3 nuclease activity values, retold here.

Data set [1] deals with Cascade lacking the Cse1 subunit (T. fusca). The data set can be described thus: EMSA, target DNA with a mismatch to the crRNA at position +1.
Data set [2] shares this target. Nature of the data set: EMSA, target DNA with a changed PAM and a mismatch at position +1.
Data set [3] deals with T. fusca Type I-E CRISPR-Cas (Cascade) effector complex.

Regarding free Cse1 (T. fusca), the percent of Cascade complexes converted to the faster-migrating species (Cascade lacking Cse1) is 80% in data set [1] and 100% in data set [2]. For the substance T. fusca Cas3, in data set [3], the Cas3 nuclease activity result is “impaired Cas3 recruitment also reduced Cas3 nuclease activity when ATP and Co^+2 were added to the reaction mixtures”.
